The text below walks through data of paper PMC3350781 (Current Biology, 2011).

This test has as its target T1, Wsp1p poly (p)-VCA (residues 129-574 including the polyproline domain and VCA) (S. pombe, UniProt O36027 129-574).
T1 sequence (looked up): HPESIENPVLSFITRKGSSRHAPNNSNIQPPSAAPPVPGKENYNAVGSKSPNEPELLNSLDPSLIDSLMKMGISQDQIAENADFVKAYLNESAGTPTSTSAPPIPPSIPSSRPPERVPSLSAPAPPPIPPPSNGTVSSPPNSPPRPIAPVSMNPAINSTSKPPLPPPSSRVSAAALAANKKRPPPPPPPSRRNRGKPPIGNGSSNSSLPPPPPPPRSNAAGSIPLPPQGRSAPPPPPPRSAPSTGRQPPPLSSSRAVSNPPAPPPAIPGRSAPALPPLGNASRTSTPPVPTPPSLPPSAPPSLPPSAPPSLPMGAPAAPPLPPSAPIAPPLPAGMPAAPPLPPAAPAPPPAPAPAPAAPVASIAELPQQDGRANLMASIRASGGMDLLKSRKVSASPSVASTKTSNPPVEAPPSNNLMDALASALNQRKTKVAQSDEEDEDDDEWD
Briefly: pull-down.

B1: GST-Bzz1pSH3 (residues 586-642) (domain or fragment, S. pombe, UniProt Q09746 586-642, looked up)
chain: SSYVKALYAYTAQSDMELSIQEGDIIQVTNRNAGNGWSEGILNGVTGQFPANYVTDV
B1 came in with a Kd of around 2000 nM.

B2: GST-Bzz1pSH3SH3 (residues 521-642) (domain or fragment, S. pombe, UniProt Q09746 521-642, looked up)
chain: VVLYDFTGEHEGVITASEGQEFTLLEPDDGSGWVRVKIDGTDGLIPASYVKLNDELNTSVTLDGDSSYVKALYAYTAQSDMELSIQEGDIIQVTNRNAGNGWSEGILNGVTGQFPANYVTDV
B2 came in with a Kd of around 100 nM.

A word on the Kd: it is the concentration at which binding is half-saturated. Low values mean a tighter complex, high ones a looser complex.
